Measurements from PMC6788056.

B1: cUGDH (C. elegans UDP-glucose dehydrogenase) (Caenorhabditis elegans) (protein)
chain: MTDQVFGKVSKVVCVGAGYVGGPTCAMIAHKCPHITVTVVDMNTAKIAEWNSDKLPIYEPGLDEIVFAARGRNLFFSSDIPKAIAEADLIFISVNTPTKMYGRGKGMAPDLKYVESVSRTIAQYAGGPKIVVEKSTVPVKAAESIGCILREAQKNNENLKFQVLSNPEFLAEGTAMKDLANPDRVLIGGESSPEGLQAVAELVRIYENWVPRNRIITTNTWSSELSKLVANAFLAQRISSINSISAVCEATGAEISEVAHAVGYDTRIGSKFLQASVGFGGSCFQKDVLSLVYLCESLNLPQVADYWQGVININNWQRRRFADKIIAELFNTVTDKKIAIFGFAFKKNTGDTRESSAIHVIKHLMEEHAKLSVYDPKVQKSQMLNDLASVTSAQDVERLITVESDPYAAARGAHAIVVLTEWDEFVELNYSQIHNDMQHPAAIFDGRLILDQKALREIGFRTFAIGTSPDQAYNLFGTAGY
B2: hUGDH (human UDP-glucose dehydrogenase) (Homo sapiens) (protein)
chain: MFEIKKICCIGAGYVGGPTCSVIAHMCPEIRVTVVDVNESRINAWNSPTLPIYEPGLKEVVESCRGKNLFFSTNIDDAIKEADLVFISVNTPTKTYGMGKGRAADLKYIEACARRIVQNSNGYKIVTEKSTVPVRAAESIRRIFDANTKPNLNLQVLSNPEFLAEGTAIKDLKNPDRVLIGGDETPEGQRAVQALCAVYEHWVPREKILTTNTWSSELSKLAANAFLAQRISSINSISALCEATGADVEEVATAIGMDQRIGNKFLKASVGFGGSCFQKDVLNLVYLCEALNLPEVARYWQQVIDMNDYQRRRFASRIIDSLFNTVTDKKIAILGFAFKKDTGDTRESSSIYISKYLMDEGAHLHIYDPKVPREQIVVDLSHPGVSEDDQVSRLVTISKDPYEACDGAHAVVICTEWDMFKELDYERIHKKMLKPAFIFDGRRVLDGLHNELQTIGFQIETIGKKVSSKRIPYAPSGEIPKFSLQDPPNKKPKV

Substrate: NC(=O)c1ccc[n+]([C@@H]2O[C@H](COP(=O)([O-])OP(=O)(O)OC[C@H]3O[C@@H](n4cnc5c(N)ncnc54)[C@H](O)[C@@H]3O)[C@@H](O)[C@H]2O)c1
Assay: purified protein
Conditions: NAD^+ binding (NB) domain; varied: cofactor

Protein	K0.5
B1	333 ± 18 µM
B2	1094 ± 244 µM
